Tests used:
[1] = molecular target: JAK2 immunoprecipitated from BMMC lysates (tyrosine-phosphorylated) (UniProt Q62120)
[2] = molecular target: Tyk2 immunoprecipitated from macrophage lysates (UniProt Q9R117)
[3] = molecular target: JAK1 immunoprecipitated from BMMC lysates (UniProt P52332)
[4] = molecular target: Lyn immunoprecipitated from BMMC lysates (UniProt P25911)
[5] = molecular target: STAT3 immunoprecipitated from BMMC lysates (UniProt P42227)
[6] = molecular target: STAT5 immunoprecipitated from BMMC lysates (UniProt Q9JIA0)

JAK2 immunoprecipitated from BMMC lysates (tyrosine-phosphorylated), sequence (Q62120 whole entry): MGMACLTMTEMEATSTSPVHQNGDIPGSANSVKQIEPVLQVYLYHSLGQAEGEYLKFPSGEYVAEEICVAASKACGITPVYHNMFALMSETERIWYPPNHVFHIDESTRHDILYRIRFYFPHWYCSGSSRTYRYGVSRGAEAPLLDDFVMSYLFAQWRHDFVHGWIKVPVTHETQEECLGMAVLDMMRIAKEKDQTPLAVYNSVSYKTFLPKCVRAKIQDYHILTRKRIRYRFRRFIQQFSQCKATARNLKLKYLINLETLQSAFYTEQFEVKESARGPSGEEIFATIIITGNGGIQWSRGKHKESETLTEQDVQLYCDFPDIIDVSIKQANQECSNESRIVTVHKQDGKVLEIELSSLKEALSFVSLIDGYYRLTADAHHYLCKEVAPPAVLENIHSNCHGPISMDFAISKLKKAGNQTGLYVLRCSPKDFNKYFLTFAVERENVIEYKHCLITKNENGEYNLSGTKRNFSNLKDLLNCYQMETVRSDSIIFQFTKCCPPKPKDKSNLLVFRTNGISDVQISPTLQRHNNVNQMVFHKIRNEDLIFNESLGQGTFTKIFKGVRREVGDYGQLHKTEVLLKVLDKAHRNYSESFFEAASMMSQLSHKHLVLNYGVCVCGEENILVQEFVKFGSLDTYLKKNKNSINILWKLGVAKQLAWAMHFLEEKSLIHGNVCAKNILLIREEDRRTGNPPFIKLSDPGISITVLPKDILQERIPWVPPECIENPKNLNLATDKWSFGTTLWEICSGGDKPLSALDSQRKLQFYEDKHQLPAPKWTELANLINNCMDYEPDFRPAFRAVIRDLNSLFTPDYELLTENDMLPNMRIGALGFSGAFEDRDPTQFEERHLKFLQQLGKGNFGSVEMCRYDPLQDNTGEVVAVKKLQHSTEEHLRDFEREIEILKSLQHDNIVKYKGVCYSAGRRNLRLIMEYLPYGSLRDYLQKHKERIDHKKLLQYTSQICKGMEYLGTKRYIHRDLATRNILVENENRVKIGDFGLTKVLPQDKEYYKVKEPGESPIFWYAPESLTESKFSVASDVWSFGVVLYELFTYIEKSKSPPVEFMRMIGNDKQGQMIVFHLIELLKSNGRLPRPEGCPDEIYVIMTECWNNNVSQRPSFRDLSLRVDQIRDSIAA
STAT3 immunoprecipitated from BMMC lysates, sequence (P42227 2-770): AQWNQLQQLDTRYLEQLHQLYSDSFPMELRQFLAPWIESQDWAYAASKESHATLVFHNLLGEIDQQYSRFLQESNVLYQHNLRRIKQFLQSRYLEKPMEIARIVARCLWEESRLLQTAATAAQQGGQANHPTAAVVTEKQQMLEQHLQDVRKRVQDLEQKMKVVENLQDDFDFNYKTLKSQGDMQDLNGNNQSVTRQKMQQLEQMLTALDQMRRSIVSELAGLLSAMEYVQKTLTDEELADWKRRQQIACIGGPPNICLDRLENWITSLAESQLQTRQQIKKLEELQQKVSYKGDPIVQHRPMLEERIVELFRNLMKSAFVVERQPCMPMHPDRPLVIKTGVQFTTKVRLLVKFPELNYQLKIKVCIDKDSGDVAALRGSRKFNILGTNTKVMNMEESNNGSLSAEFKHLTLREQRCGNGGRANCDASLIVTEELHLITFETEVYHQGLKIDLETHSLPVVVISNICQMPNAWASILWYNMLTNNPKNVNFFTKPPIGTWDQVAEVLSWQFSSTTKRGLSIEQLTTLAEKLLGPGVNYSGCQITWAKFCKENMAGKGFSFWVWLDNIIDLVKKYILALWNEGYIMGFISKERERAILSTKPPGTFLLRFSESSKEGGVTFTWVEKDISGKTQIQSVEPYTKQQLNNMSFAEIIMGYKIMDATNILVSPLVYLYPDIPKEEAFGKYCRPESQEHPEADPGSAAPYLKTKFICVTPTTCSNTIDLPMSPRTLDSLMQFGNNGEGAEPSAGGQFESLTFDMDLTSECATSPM
JAK1 immunoprecipitated from BMMC lysates, sequence (P52332 whole entry): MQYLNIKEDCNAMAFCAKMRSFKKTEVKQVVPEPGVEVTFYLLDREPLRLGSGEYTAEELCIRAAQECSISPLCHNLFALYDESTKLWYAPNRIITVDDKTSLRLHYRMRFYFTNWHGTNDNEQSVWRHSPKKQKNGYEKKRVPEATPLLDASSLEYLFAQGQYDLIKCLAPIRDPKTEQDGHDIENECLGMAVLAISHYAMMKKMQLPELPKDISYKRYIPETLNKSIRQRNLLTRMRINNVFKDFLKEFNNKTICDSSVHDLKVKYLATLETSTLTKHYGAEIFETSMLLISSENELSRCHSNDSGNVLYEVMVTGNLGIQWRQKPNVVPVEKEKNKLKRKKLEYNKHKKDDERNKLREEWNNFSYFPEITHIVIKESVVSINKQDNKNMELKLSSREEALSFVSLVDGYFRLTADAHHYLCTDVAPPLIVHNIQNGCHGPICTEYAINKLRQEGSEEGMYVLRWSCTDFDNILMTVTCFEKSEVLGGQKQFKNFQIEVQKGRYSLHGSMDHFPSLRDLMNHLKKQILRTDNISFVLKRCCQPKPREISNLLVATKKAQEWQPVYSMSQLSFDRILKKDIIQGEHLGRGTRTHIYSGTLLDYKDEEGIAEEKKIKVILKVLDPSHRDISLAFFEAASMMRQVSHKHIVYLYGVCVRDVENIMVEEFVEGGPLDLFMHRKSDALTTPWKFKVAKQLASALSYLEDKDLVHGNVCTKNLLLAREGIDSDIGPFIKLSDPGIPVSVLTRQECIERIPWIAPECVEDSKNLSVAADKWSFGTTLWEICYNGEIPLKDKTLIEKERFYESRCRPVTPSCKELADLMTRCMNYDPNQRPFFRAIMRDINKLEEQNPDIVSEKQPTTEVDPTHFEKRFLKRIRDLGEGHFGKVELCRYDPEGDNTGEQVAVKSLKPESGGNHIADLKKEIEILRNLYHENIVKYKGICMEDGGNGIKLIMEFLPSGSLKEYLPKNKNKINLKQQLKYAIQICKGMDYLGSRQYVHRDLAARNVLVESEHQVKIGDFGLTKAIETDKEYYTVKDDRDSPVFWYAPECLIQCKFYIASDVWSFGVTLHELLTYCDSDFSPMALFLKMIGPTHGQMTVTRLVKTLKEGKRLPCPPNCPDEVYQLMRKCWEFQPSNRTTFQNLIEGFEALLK
Lyn immunoprecipitated from BMMC lysates, sequence (P25911 2-512): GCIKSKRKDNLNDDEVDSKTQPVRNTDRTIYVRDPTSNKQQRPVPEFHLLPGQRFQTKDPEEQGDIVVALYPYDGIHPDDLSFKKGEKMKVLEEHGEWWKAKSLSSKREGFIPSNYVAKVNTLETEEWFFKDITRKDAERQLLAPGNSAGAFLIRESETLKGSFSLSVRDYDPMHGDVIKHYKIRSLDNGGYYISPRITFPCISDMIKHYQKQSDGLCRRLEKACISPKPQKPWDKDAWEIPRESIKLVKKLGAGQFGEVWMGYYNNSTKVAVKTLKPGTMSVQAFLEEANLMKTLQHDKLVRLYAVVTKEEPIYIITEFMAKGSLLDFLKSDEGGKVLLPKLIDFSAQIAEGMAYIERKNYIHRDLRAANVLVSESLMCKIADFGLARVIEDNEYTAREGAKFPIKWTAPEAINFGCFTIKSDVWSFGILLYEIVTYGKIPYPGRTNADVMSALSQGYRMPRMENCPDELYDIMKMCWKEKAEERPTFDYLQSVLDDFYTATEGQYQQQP

Substance	tyrosine dephosphorylation in vitro (phosphatase assay) [1]	dephosphorylation of critical tyrosine residues in vitro (site-specific phospho-specific antibodies) [2]	dephosphorylation of critical tyrosine residues in vitro (site-specific phospho-specific antibodies) [3]	tyrosine dephosphorylation in vitro (phosphatase assay, immunoblot) [4]	tyrosine dephosphorylation in vitro (phosphatase assay, immunoblot) [5]	dephosphorylation of critical tyrosine residues in vitro (site-specific phospho-specific antibodies) [1]	tyrosine dephosphorylation in vitro (phosphatase assay, immunoblot) [1]	tyrosine dephosphorylation in vitro (phosphatase assay, immunoblot) [6]
PTPase-dead rCD45 (D1:C828S mutant)	PTPase-dead rCD45 (D1:C828S mutant) did not dephosphorylate JAK2	–	–	–	–	–	–	–
recombinant CD45 (intracellular dual PTPase domains, Mr 97K, catalytic D1 and non-catalytic D2, lacking extracellular regions)	–	rCD45 does indeed dephosphorylate the critical tyrosine residues of JAK1, JAK2, and Tyk2 in vitro	rCD45 does indeed dephosphorylate the critical tyrosine residues of JAK1, JAK2, and Tyk2 in vitro	rCD45 dephosphorylated Lyn in a dose-dependent manner	tyrosine dephosphorylation of STAT3 (FIGS. 3A and 3B) and STAT5 did not occur after incubation with rCD45, even at high concentrations of rCD45	rCD45 does indeed dephosphorylate the critical tyrosine residues of JAK1, JAK2, and Tyk2 in vitro	rCD45 did, however, dephosphorylate JAK2 in vitro	tyrosine dephosphorylation of STAT3 (FIGS. 3A and 3B) and STAT5 did not occur after incubation with rCD45, even at high concentrations of rCD45

Reference: US20030175270
